B1: sPMI-4 (peptide)
peptide: Ac-TSFXRYWXRLSP-NH2
modifications: bridge 4-8 via L3; not fully specified (residues 4, 8); printed as TSFαRYWβRLSP; also: pyrazoline cross-linker L3 between α and β
notes: Stapled peptide
B2: sPMI-5 (peptide)
peptide: Ac-TSFXQYW[code β]RLRP-NH2
modifications: bridge 4-8; not fully specified (residue 4, bridges); printed as TSFαQYWβRLRP; also: pyrazoline cross-linker L3 between α and β
notes: Stapled peptide
B3: sPMI-3 (peptide)
peptide: Ac-TSFXQYWNLLXP-NH2
modifications: bridge 4-11 via L3; not fully specified (residues 4, 11); printed as TSFαQYWNLLβP; also: pyrazoline cross-linker L3 between α and β
notes: Stapled peptide
B4: sPMI-2 (peptide)
peptide: Ac-TSFAXYWNXLSP-NH2
modifications: bridge 5-9 via L3; not fully specified (residues 5, 9); printed as TSFAαYWNβLSP; also: pyrazoline cross-linker L3 between α and β
notes: Stapled peptide

These results are taken from patent US20100093086A1 (RESEARCH FOUNDATION OF STATE UNIVERSITY OF NEW YORK, published 2010).

Bridges are numbered along the chain shown (N, C = ends). [ ]: non-standard residue; d: D form. code β = tetrazole-bearing lysine Lys(tetrazole), tetrazole half of pyrazoline cross-linker; L3 = not defined here

T1 sequence (Q00987 whole entry): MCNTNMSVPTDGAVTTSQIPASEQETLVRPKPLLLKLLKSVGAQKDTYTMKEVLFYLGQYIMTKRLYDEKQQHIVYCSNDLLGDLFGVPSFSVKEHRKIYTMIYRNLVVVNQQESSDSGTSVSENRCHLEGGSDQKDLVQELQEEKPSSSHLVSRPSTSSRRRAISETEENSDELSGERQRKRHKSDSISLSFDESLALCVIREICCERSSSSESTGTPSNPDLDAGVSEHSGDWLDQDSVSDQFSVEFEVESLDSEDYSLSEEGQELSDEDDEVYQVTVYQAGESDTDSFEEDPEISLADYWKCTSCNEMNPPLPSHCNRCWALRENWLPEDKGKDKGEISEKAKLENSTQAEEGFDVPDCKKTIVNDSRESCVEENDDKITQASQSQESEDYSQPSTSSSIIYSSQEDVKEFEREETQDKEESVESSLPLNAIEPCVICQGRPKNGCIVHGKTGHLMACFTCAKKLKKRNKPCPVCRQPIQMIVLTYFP

The first test concerns the target T1, GST-MDM2 containing full-length human MDM2 (human, UniProt Q00987 1-491).
T1 construct: mature; Expressed in E. coli and purified on glutathione-agarose; also called GST-HDM2; not shown: GST tag
In words: competition ELISA: peptide + GST-MDM2 on plated His6-p53. In general terms: ELISA stands for enzyme-linked immunosorbent assay.
One may read the IC50 as the midpoint of a concentration-inhibition curve. For the molecule Ac-LTFXHYWXQLTS-NH2 (bridge 4-8 via L3; not fully specified (residues 4, 8); printed as LTFαHYWβQLTS, Stapled peptide) [sPDI-4], the IC50 was found to be 87 nM.

On to Ac-LTFXHYWXRLTS-NH2 (bridge 4-8 via L3; not fully specified (residues 4, 8); printed as LTFαHYWβRLTS, Stapled peptide) [sPDI-8], for which the IC50 worked out at 55 nM.

Regarding Ac-LTFXHYWXRLRS-NH2 (bridge 4-8 via L3; not fully specified (residues 4, 8); printed as LTFαHYWβRLRS, Stapled peptide) [sPDI-9], the IC50 is 179 nM.

With B1, the IC50 came to 1230 nM.

Consider B2, for which the IC50 stood at 597 nM.

Take B3: the IC50 was 23 nM.

With B4, the IC50 is 1080 nM.

The target of a further test is T2, GST-MDMX containing full-length human MDMX (human, UniProt O15151 1-490).
T2 construct: mature; Expressed in E. coli and purified on glutathione-agarose; not shown: GST tag
T2 sequence (looked up): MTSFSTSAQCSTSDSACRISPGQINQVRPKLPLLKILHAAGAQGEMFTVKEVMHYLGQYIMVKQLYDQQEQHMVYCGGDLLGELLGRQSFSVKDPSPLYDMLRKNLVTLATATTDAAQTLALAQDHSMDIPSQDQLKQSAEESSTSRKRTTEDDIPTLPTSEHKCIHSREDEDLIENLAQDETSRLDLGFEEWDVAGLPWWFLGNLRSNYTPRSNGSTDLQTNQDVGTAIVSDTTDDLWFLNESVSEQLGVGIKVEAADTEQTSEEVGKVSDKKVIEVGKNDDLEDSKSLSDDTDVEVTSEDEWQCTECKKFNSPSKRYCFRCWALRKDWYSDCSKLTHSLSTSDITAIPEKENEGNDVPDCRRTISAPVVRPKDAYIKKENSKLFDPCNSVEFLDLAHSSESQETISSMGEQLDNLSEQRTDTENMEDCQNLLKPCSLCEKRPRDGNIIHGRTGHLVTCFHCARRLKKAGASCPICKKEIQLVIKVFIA
In words: competition ELISA: peptide + GST-MDMX on plated His6-p53.
Regarding Ac-LTFXHYWXQLTS-NH2 (bridge 4-8 via L3; not fully specified (residues 4, 8); printed as LTFαHYWβQLTS, Stapled peptide) [sPDI-4], the IC50 is 390 nM.

Take Ac-LTFXHYWXRLTS-NH2 (bridge 4-8 via L3; not fully specified (residues 4, 8); printed as LTFαHYWβRLTS, Stapled peptide) [sPDI-8]: the IC50 was 231 nM.

In the case of Ac-LTFXHYWXRLRS-NH2 (bridge 4-8 via L3; not fully specified (residues 4, 8); printed as LTFαHYWβRLRS, Stapled peptide) [sPDI-9], the IC50 was determined as 525 nM.

Turning to B1, the IC50 is 1840 nM.

In the case of B2, the IC50 came out at 298 nM.

As to B3, the IC50 was 1490 nM.

As to B4, the IC50 stood at 3650 nM.
